# Reference: paper PMC10570122 (iScience, 2023)
# Key:
# [1] = target: T1, SARS-CoV-2 WT soluble RBD (residues 319-541) (SARS-CoV-2 Wuhan-Hu-1, UniProt P0DTC2); assay: ELISA; conditions: both partners purified
# T1 construct: also called WT RBD; WT D614G RBD gene fragment
# [2] = target: T2, SARS-CoV-2 WT stabilized soluble spike protein, hexahistidine-tagged (SARS-CoV-2 Wuhan-Hu-1, UniProt P0DTC2, stabilised); assay: BLI; conditions: both partners purified
# T2 construct: also called WT SARS-CoV-2 S
binder,measurement,setting,value
"COVA309-22 monoclonal antibody (human IgG1) (antibody, V domains shown) VH: not shown VL: EIVLTQSPSSLSASVGDRVTITCRASQSISSYLNWYQQKPGKAPKLLIYDASSLQSGVPSRFSGSGSGTDFTLTISSLQPEDFATYYCQQSYSTPPWTFGQGTKVEIK",binding result,[1],binds
same,binding result,[2],binds
